Experimental data taken from patent publication US20170298096A1 (CANIMGUIDE THERAPEUTICS, published 2017).
No end group written: not given here.

Assays:
[1] = biological target: T1, His-tagged P3028 peptide (PGE73) (human); test: PEPSCAN ELISA; peptide on card, His-tagged P3028 in solution
T1 construct: also called His-tag-P3028; not shown: His-tag
T1 peptide: VFDEFKPLVEEPQNLIK

[2] = biological target: Artificial Cell Surface (ACS): biotinylated cell surface proteins from mononuclear cells coupled to streptavidin-sepharose; test: adsorption on ACS column, MALDI-TOF MS
[3] = biological target: Artificial Cell Surface (ACS): biotinylated cell surface proteins of PBMCs bound to streptavidin columns; test: trypsin-digested dHSA adsorbed on ACS column, MALDI-TOF ms

| RAMPO Score [1] | Percent Absorbed [2] | also measured | Binder |
| --- | --- | --- | --- |
| > 500 rampo units | – | – | RKLDTFFVKLSLFTER (P28R variant on PEPSCAN card) [SEQ ID NO: 3] |
| – | 37% | – | YLSVVLNQLCVLHEKTPVSDRVTKCCCTESLVNRRPFSALEV [Asp-N-generated albumin fragment SEQ ID NO: 230] |
| – | 100% | – | KLCTVATLRETYGEMADCCAKQEPERNECFLQHK [Asp-N-generated albumin fragment SEQ ID NO: 224] |
| – | 100% | – | RVTKCCTESLVNRRPCFSALEVDETYVPKEFNAETFTFHA [Asp-N-generated albumin fragment SEQ ID NO: 229] |
| – | 86% | – | DETYVPKEFNAETFTHA [Asp-N-generated albumin fragment SEQ ID NO: 220] |
| – | 18% | – | QEPERNECFLQHK (not fully specified) [trypsin-generated albumin fragment SEQ ID NO: 211 …] |
| – | 23% | – | AVMDDFAAFVEK [trypsin-generated albumin fragment SEQ ID NO: 208 …] |
| – | 13% | – | VHTECCHGDLLECADDR [trypsin-generated albumin fragment SEQ ID NO: 212 …] |
| – | 32% | – | CCAAADPHECYAK [trypsin-generated albumin fragment SEQ ID NO: 204 …] |
| – | 100% | – | LGEENFKALVLIAFAQYLQQCPFEDHVKLVNEVTEFAKTCVA [Asp-N-generated albumin fragment SEQ ID NO: 228] |
| – | 1% | – | DDNPNLPR [trypsin-generated albumin fragment SEQ ID NO: 216 DDNPNLPR] |
| > 500 rampo units | – | – | KKLDTFFVKLSLMTER (P28R variant on PEPSCAN card) [SEQ ID NO: 22] |
| > 500 rampo units | – | – | KKLDQFFVKLSLFTER (P28R variant on PEPSCAN card) [SEQ ID NO: 6] |
| – | 25% | – | QEPERNECFLQHK (not fully specified) [trypsin-generated albumin fragment SEQ ID NO: 207 …] |
| – | – | Percent Absorbed [3]: 34% | YLYEIAR [albumin fragment YLYEIAR] |
| > 500 rampo units | – | – | KKLDTAFVKLSLFTER (P28R variant on PEPSCAN card) [SEQ ID NO: 7] |
| > 500 rampo units | – | – | KKLDTVFVKLSLFTER (P28R variant on PEPSCAN card) [SEQ ID NO: 8] |
| – | 65% | – | DSISSKLKECCEKPLLEKSHCIAEVEN [Asp-N-generated albumin fragment SEQ ID NO: 221] |
| > 500 rampo units | – | – | KKLDTFMVKLSLFTER (P28R variant on PEPSCAN card) [SEQ ID NO: 9] |
| > 500 rampo units | – | – | KKLDTFVVKLSLFTER (P28R variant on PEPSCAN card) [SEQ ID NO: 11] |
| > 500 rampo units | – | – | KKLDTFTVKLSLFTER (P28R variant on PEPSCAN card) [SEQ ID NO: 12] |
| > 500 rampo units | – | – | KKLDTFLVKLSLFTER (P28R variant on PEPSCAN card) [SEQ ID NO: 13] |
| > 500 rampo units | – | – | KKLDTFSVKLSLFTER (P28R variant on PEPSCAN card) [SEQ ID NO: 10] |

| RAMPO Score [1] | Percent Absorbed [2] | also measured | Binder |
| --- | --- | --- | --- |
| – | 3% | – | YICENQDSISSK [trypsin-generated albumin fragment SEQ ID NO: 214 …] |
| – | 22% | – | NECFLQHK [trypsin-generated albumin fragment SEQ ID NO: 209 NECFLQHK] |
| > 500 rampo units | – | – | KKGDTFFVKLSLFTER (P28R variant on PEPSCAN card) [SEQ ID NO: 4] |
| > 500 rampo units | – | – | KKEDTFFVKLSLFTER (P28R variant on PEPSCAN card) [SEQ ID NO: 5] |
| > 500 rampo units | – | – | KKLDTFFVKLQLFTER (P28R variant on PEPSCAN card) [SEQ ID NO: 15] |
| – | 26% | – | CCTESLVNR [trypsin-generated albumin fragment SEQ ID NO: 206 …] |
| – | – | Percent Absorbed [3]: 71% | KYLYEIAR [albumin fragment KYLYEIAR] |
| > 500 rampo units | – | – | KKLDTFFVKLSLQTER (P28R variant on PEPSCAN card) [SEQ ID NO: 23] |
| > 500 rampo units | – | – | KKLDTFFVKLSLATER (P28R variant on PEPSCAN card) [SEQ ID NO: 29] |
| > 500 rampo units | – | – | KKLDTFFVKLSLNTER (P28R variant on PEPSCAN card) [SEQ ID NO: 25] |
| > 500 rampo units | – | – | KKLDTFFVKLSLSTER (P28R variant on PEPSCAN card) [SEQ ID NO: 27] |
| > 500 rampo units | – | – | KKLDTFFVKLSLRTER (P28R variant on PEPSCAN card) [SEQ ID NO: 30] |
| > 500 rampo units | – | – | KKLDTFFVKLSLHTER (P28R variant on PEPSCAN card) [SEQ ID NO: 24] |
| > 500 rampo units | – | – | KKLDTFFVKLSLPTER (P28R variant on PEPSCAN card) [SEQ ID NO: 26] |
| > 500 rampo units | – | – | KKLDTFFVKLSLGTER (P28R variant on PEPSCAN card) [SEQ ID NO: 28] |
| > 500 rampo units | – | – | KKLDTFFVKVSLFTER (P28R variant on PEPSCAN card) [SEQ ID NO: 14] |
| – | 8% | – | FKDLGEENFK [trypsin-generated albumin fragment SEQ ID NO: 213 …] |
| – | – | Percent Absorbed [3]: 32% | CCAAADPHECYAK |
| > 500 rampo units | – | – | KKLDTFFVKLSLFNER (P28R variant on PEPSCAN card) [SEQ ID NO: 31] |
| > 500 rampo units | – | – | KKLDTFFVKLSLFPER (P28R variant on PEPSCAN card) [SEQ ID NO: 32] |
| > 500 rampo units | – | – | KKLDTFFVKLSLFRER (P28R variant on PEPSCAN card) [SEQ ID NO: 33] |
| – | – | Percent Absorbed [3]: 22% | NECFLQHK [albumin fragment NECFLQHK] |
| – | 100% | – | DHVKLVNEVTEFAKTCVA [Asp-N-generated albumin fragment SEQ ID NO: 217] |

| RAMPO Score [1] | Percent Absorbed [2] | also measured | Binder |
| --- | --- | --- | --- |
| – | – | Percent Absorbed [3]: 23% | AVMDDFAAFVEK |
| – | 35% | – | LCTVATLR [trypsin-generated albumin fragment SEQ ID NO: 202 LCTVATLR] |
| – | 100% | – | LAKYICENQDSISSKLKECCEKPLLEKHCIAEVEN [Asp-N-generated albumin fragment SEQ ID NO: 226] |
| – | 100% | – | YSVVLLLRLAKTYETTLEKCCAAADPHECYAKVF [Asp-N-generated albumin fragment SEQ ID NO: 223] |
| – | 34% | – | YLYEIAR [trypsin-generated albumin fragment SEQ ID NO: 203 YLYEIAR] |
| – | 100% | – | DDKETCFAEEGKKLVAASQAALGL [Asp-N-generated albumin fragment SEQ ID NO: 218] |
| – | – | Percent Absorbed [3]: 26% | CCTESLVNR |
| > 500 rampo units | – | – | KKLDTFFVKLSQFTER (P28R variant on PEPSCAN card) [SEQ ID NO: 19] |
| > 500 rampo units | – | – | KKLDTFFVKLSMFTER (P28R variant on PEPSCAN card) [SEQ ID NO: 21] |
| > 500 rampo units | – | – | KKLDTFFVKLSVFTER (P28R variant on PEPSCAN card) [SEQ ID NO: 20] |
| – | – | Percent Absorbed [3]: 13% | VHTECCHGDLLECADDR |
| > 500 rampo units | – | – | KKLDTFFVKLMLFTER (P28R variant on PEPSCAN card) [SEQ ID NO: 16] |
| > 500 rampo units | – | – | KKLDTFFVKLTLFTER (P28R variant on PEPSCAN card) [SEQ ID NO: 17] |
| > 500 rampo units | – | – | KKLDTFFVKLHLFTER (P28R variant on PEPSCAN card) [SEQ ID NO: 18] |
| – | – | Percent Absorbed [3]: 29% | AAFTECCQAADK |
| – | 2% | – | LDELRDEGK [trypsin-generated albumin fragment SEQ ID NO: 215 …] |
| – | 65% | – | DKLCTVATLRETYGEM [Asp-N-generated albumin fragment SEQ ID NO: 222] |
| – | 29% | – | AAFTECCQAADK [trypsin-generated albumin fragment SEQ ID NO: 205 …] |
| – | 87% | – | DRVTKCCTESLVNRRPCFSALEV [Asp-N-generated albumin fragment SEQ ID NO: 219] |
| – | – | Percent Absorbed [3]: 20% | QNCELFEQLGEYK [albumin fragment O…] |
| – | 100% | – | VFLGMFLYEYARRHPDYSVVLLLRLAKTYETTLEKCCAAA [Asp-N-generated albumin fragment SEQ ID NO: 227] |
| – | 100% | – | ICTLSEKERQIKKQTALVELVKHKPKATKEQLKAVM [Asp-N-generated albumin fragment SEQ ID NO: 225] |
